From paper PMC2760644

Molecular target: F-actin (chicken) (UniProt P68139)
Assay: co-sedimentation

supervillin headpiece L38K point mutant (domain or fragment)
Kd: 88 µM
